The values that follow are results of earlier work, collected in patent US20180140739A1, “HAEMOSTATIC DEVICE” (HAEMOSTATIX LIMITED, priority 2015, published 2018).

For the data set, the target named is T1, fibrinogen hole 'a' and hole 'b' (Homo sapiens, UniProt P02675+P02679).
T1 sequence (P02679 27-433 limits assumed): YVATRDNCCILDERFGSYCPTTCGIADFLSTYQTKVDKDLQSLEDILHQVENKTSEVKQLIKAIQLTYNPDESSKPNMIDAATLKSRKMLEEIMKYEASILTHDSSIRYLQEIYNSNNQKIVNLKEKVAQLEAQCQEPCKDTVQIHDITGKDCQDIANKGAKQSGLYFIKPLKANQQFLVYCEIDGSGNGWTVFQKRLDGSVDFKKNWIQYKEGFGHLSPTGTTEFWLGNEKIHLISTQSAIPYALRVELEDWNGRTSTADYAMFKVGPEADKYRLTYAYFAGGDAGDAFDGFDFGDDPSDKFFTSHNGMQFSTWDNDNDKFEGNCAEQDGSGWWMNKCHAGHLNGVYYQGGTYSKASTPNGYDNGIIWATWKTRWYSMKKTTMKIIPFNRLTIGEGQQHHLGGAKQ
T1 sequence (P02675 31-491): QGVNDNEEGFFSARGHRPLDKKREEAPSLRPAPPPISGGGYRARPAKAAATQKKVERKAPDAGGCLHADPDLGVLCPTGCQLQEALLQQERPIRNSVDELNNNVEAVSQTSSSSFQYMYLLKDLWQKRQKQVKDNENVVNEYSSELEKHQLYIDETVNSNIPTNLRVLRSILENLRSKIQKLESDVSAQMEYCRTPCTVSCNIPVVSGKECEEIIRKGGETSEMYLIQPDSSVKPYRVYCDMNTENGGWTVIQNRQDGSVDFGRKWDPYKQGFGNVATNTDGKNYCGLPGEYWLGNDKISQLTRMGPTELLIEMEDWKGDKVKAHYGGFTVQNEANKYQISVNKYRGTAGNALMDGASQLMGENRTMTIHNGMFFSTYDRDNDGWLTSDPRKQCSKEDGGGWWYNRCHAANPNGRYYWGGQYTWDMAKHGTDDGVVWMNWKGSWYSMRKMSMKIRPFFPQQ
T1 sequence (P02671 20-629 partner limits assumed): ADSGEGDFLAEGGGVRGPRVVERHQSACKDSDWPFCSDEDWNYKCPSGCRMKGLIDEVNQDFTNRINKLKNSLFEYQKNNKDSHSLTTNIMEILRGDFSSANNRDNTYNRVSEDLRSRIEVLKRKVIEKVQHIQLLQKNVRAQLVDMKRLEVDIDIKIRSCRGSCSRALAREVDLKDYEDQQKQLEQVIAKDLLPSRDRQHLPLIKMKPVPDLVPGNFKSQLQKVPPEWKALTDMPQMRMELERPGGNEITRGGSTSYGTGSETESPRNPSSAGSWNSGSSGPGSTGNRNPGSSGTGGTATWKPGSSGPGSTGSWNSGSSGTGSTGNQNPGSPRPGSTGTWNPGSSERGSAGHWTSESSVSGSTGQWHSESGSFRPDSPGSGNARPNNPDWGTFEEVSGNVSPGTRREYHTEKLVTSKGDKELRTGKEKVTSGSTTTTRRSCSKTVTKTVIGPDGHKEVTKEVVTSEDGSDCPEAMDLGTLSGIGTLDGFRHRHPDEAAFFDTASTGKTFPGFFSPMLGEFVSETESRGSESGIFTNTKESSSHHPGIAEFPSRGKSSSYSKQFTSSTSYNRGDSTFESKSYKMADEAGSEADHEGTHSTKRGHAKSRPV
Conditions: cited from earlier work.

For GPRPG (listed as Homo sapiens), the “binding preference for hole 'a' / hole 'b' of fibrinogen” value is “binds to hole ‘a’ and hole ‘b’ of fibrinogen, but with some preference for hole ‘a’”.
